# Test results: IntAct's records for PubMed 31515488
# B1: UPF0462 protein C4orf33 (Homo sapiens), Q8N1A6 (parent)
# chain: MDFKIEHTWDGFPVKHEPVFIRLNPGDRGVMMDISAPFFRDPPAPLGEPGKPFNELWDYEVVEAFFLNDITEQYLEVELCPHGQHLVLLLSGRRNVWKQELPLSFRMSRGETKWEGKAYLPWSYFPPNVTKFNSFAIHGSKDKRSYEALYPVPQHELQQGQKPDFHCLEYFKSFNFNTLLGEEWKQPESDLWLIEKCDI
# partner: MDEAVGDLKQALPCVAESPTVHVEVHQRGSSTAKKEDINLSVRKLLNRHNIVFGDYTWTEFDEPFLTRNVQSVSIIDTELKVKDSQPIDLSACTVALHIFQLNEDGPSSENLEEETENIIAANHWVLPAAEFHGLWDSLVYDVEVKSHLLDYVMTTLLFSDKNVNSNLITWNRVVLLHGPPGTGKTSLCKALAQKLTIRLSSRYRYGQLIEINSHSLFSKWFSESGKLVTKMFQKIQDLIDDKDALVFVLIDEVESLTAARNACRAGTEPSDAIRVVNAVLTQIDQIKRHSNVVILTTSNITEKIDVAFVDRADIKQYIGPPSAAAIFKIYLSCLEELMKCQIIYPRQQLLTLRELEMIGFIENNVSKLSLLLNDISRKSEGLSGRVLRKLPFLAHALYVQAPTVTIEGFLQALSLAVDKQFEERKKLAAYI
# B2: DCC-interacting protein 13-beta (Homo sapiens), Q8NEU8 (parent)
# chain: MPAVDKLLLEEALQDSPQTRSLLSVFEEDAGTLTDYTNQLLQAMQRVYGAQNEMCLATQQLSKQLLAYEKQNFALGKGDEEVISTLHYFSKVVDELNLLHTELAKQLADTMVLPIIQFREKDLTEVSTLKDLFGLASNEHDLSMAKYSRLPKKKENEKVKTEVGKEVAAARRKQHLSSLQYYCALNALQYRKQMAMMEPMIGFAHGQINFFKKGAEMFSKRMDSFLSSVADMVQSIQVELEAEAEKMRVSQQELLSVDESVYTPDSDVAAPQINRNLIQKAGYLNLRNKTGLVTTTWERLYFFTQGGNLMCQPRGAVAGGLIQDLDNCSVMAVDCEDRRYCFQITTPNGKSGIILQAESRKENEEWICAINNISRQIYLTDNPEAVAIKLNQTALQAVTPITSFGKKQESSCPSQNLKNSEMENENDKIVPKATASLPEAEELIAPGTPIQFDIVLPATEFLDQNRGSRRTNPFGETEDESFPEAEDSLLQQMFIVRFLGSMAVKTDSTTEVIYEAMRQVLAARAIHNIFRMTESHLMVTSQSLRLIDPQTQVSRANFELTSVTQFAAHQENKRLVGFVIRVPESTGEESLSTYIFESNSEGEKICYAINLGKEIIEVQKDPEALAQLMLSIPLTNDGKYVLLNDQPDDDDGNPNEHRGAESEA
# partner: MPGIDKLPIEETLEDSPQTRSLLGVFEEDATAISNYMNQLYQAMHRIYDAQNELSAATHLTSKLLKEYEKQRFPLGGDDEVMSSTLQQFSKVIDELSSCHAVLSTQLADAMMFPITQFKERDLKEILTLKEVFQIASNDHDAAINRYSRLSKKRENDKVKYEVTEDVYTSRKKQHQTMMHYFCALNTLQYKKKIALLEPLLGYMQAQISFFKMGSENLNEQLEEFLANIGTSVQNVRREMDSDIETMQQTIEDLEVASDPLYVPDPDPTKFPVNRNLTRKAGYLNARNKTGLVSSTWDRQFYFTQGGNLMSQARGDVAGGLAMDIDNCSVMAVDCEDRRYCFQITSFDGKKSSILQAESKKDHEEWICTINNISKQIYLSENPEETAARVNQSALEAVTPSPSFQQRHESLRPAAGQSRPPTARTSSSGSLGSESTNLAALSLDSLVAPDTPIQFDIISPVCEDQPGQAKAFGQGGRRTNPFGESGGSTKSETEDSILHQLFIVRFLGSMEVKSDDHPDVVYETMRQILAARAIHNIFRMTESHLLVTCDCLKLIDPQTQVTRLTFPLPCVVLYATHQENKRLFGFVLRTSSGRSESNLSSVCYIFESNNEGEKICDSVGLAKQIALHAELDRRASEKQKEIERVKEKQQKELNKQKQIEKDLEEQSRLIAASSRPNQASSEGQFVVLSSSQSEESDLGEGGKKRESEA
# B3: Tumor susceptibility gene 101 protein (Homo sapiens), Q99816 (parent)
# chain: MAVSESQLKKMVSKYKYRDLTVRETVNVITLYKDLKPVLDSYVFNDGSSRELMNLTGTIPVPYRGNTYNIPICLWLLDTYPYNPPICFVKPTSSMTIKTGKHVDANGKIYLPYLHEWKHPQSDLLGLIQVMIVVFGDEPPVFSRPISASYPPYQATGPPNTSYMPGMPGGISPYPSGYPPNPSGYPGCPYPPGGPYPATTSSQYPSQPPVTTVGPSRDGTISEDTIRASLISAVSDKLRWRMKEEMDRAQAELNALKRTEEDLKKGHQKLEEMVTRLDQEVAEVDKNIELLKKKDEELSSALEKMENQSENNDIDEVIIPTAPLYKQILNLYAEENAIEDTIFYLGEALRRGVIDLDVFLKHVRLLSRKQFQLRALMQKARKTAGLSDLY
# B4: Serpin I2 (Homo sapiens), O75830 (parent)
# chain: MDTIFLWSLLLLFFGSQASRCSAQKNTEFAVDLYQEVSLSHKDNIIFSPLGITLVLEMVQLGAKGKAQQQIRQTLKQQETSAGEEFFVLKSFFSAISEKKQEFTFNLANALYLQEGFTVKEQYLHGNKEFFQSAIKLVDFQDAKACAEMISTWVERKTDGKIKDMFSGEEFGPLTRLVLVNAIYFKGDWKQKFRKEDTQLINFTKKNGSTVKIPMMKALLRTKYGYFSESSLNYQVLELSYKGDEFSLIIILPAEGMDIEEVEKLITAQQILKWLSEMQEEEVEISLPRFKVEQKVDFKDVLYSLNITEIFSGGCDLSGITDSSEVYVSQVTQKVFFEINEDGSEAATSTGIHIPVIMSLAQSQFIANHPFLFIMKHNPTESILFMGRVTNPDTQEIKGRDLDSL
# B5: Notch homolog 2 N-terminal-like protein A (Homo sapiens), Q7Z3S9 (parent)
# chain: MCVTYHNGTGYCKCPEGFLGEYCQHRDPCEKNRCQNGGTCVAQAMLGKATCRCASGFTGEDCQYSTSHPCFVSRPCLNGGTCHMLSRDTYECTCQVGFTGKECQWTDACLSHPCANGSTCTTVANQFSCKCLTGFTGQKCETDVNECDIPGHCQHGGTCLNLPGSYQCQCLQGFTGQYCDSLYVPCAPSPCVNGGTCRQTGDFTFECNCLPETVRRGTELWERDREVWNGKEHDEN
# partner: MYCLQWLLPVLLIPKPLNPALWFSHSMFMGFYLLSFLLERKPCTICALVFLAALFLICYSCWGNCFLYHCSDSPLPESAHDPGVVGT
# B6: CDK5 regulatory subunit-associated protein 3 (Homo sapiens), Q96JB5 (parent)
# chain: MEDHQHVPIDIQTSKLLDWLVDRRHCSLKWQSLVLTIREKINAAIQDMPESEEIAQLLSGSYIHYFHCLRILDLLKGTEASTKNIFGRYSSQRMKDWQEIIALYEKDNTYLVELSSLLVRNVNYEIPSLKKQIAKCQQLQQEYSRKEEECQAGAAEMREQFYHSCKQYGITGENVRGELLALVKDLPSQLAEIGAAAQQSLGEAIDVYQASVGFVCESPTEQVLPMLRFVQKRGNSTVYEWRTGTEPSVVERPHLEELPEQVAEDAIDWGDFGVEAVSEGTDSGISAEAAGIDWGIFPESDSKDPGGDGIDWGDDAVALQITVLEAGTQAPEGVARGPDALTLLEYTETRNQFLDELMELEIFLAQRAVELSEEADVLSVSQFQLAPAILQGQTKEKMVTMVSVLEDLIGKLTSLQLQHLFMILASPRYVDRVTEFLQQKLKQSQLLALKKELMVQKQQEALEEQAALEPKLDLLLEKTKELQKLIEADISKRYSGRPVNLMGTSL
# partner: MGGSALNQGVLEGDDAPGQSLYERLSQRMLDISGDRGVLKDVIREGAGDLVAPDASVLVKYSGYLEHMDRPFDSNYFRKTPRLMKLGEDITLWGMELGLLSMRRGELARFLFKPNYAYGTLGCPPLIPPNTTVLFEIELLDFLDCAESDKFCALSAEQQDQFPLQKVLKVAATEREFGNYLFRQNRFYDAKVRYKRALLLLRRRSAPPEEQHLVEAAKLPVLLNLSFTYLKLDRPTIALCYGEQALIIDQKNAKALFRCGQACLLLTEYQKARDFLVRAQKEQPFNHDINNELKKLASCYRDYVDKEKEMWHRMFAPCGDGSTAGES
# B7: Centriolar satellite-associated tubulin polyglutamylase complex regulator 1 (Homo sapiens), Q9H6J7 (parent)
# chain: MLSPERLALPDYEYLAQRHVLTYMEDAVCQLLENREDISQYGIARFFTEYFNSVCQGTHILFREFSFVQATPHNRVSFLRAFWRCFRTVGKNGDLLTMKEYHCLLQLLCPDFPLELTQKAARIVLMDDAMDCLMSFSDFLFAFQIQFYYSEFLDSVAAIYEDLLSGKNPNTVIVPTSSSGQHRQRPALGGAGTLEGVEASLFYQCLENLCDRHKYSCPPPALVKEALSNVQRLTFYGFLMALSKHRGINQALGALPDKGDLMHDPAMDEELERLLAQVPGLVNSVTASPEASCLPSRTPPRVGSPWRPLHHSRKVDGESDGSTEETDESET
# partner: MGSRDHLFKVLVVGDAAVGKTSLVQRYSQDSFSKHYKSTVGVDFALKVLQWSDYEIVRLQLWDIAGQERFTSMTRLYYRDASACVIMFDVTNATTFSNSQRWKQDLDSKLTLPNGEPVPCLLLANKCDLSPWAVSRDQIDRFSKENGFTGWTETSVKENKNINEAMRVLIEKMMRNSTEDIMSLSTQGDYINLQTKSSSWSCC
# B8: Breast cancer anti-estrogen resistance protein 3 (Homo sapiens), O75815-1 (parent)
# chain: MAAGKFASLPRNMPVNHQFPLASSMDLLSSRSPLAEHRPDAYQDVSIHGTLPRKKKGPPPIRSCDDFSHMGTLPHSKSPRQNSPVTQDGIQESPWQDRHGETFTFRDPHLLDPTVEYVKFSKERHIMDRTPEKLKKELEEELLLSSEDLRSHAWYHGRIPRQVSENLVQRDGDFLVRDSLSSPGNFVLTCQWKNLAQHFKINRTVLRLSEAYSRVQYQFEMESFDSIPGLVRCYVGNRRPISQQSGAIIFQPINRTVPLRCLEEHYGTSPGQAREGSLTKGRPDVAKRLSLTMGGVQAREQNLPRGNLLRNKEKSGSQPACLDHMQDRRALSLKAHQSESYLPIGCKLPPQSSGVDTSPCPNSPVFRTGSEPALSPAVVRRVSSDARAGEALRGSDSQLCPKPPPKPCKVPFLKVPSSPSAWLNSEANYCELNPAFATGCGRGAKLPSCAQGSHTELLTAKQNEAPGPRNSGVNYLILDDDDRERPWEPAAAQMEKGQWDKGEFVTPLLETVSSFRPNEFESKFLPPENKPLETAMLKRAKELFTNNDPKVIAQHVLSMDCRVARILGVSEEMRRNMGVSSGLELITLPHGHQLRLDIIERHNTMAIGIAVDILGCTGTLEDRAATLSKIIQVAVELKDSMGDLYSFSALMKALEMPQITRLEKTWTALRHQYTQTAILYEKQLKPFSKLLHEGRESTCVPPNNVSVPLLMPLVTLMERQAVTFEGTDMWEKNDQSCEIMLNHLATARFMAEAADSYRMNAERILAGFQPDEEMNEICKTEFQMRLLWGSKGAQVNQTERYEKFNQILTALSRKLEPPPVKQAEL
# partner: B8 chain
# B9: Keratin-associated protein 12-1 (Homo sapiens), P59990 (parent)
# chain: MCHTSCSSGCQPACCAPSPCQASCYIPVGCQSSVCVPVSFKPAVCVPVRCQSSVCVPVSCRPVVYAAPSCQSSGCCQPSCTSVLCRPISCSTPSCC
# Variants of: B1
# Details: with pch2_human TRIP13, Q15645
row,Variant,effect of a mutation on the interaction
1,H166R,with no effect

# Variants of: B2
# Details: with dp13a_human APPL1, Q9UKG1
row,Variant,effect of a mutation on the interaction
1,K70R,with no effect

# Variants of: B3
# Details: with hgs_human HGS
row,Variant,effect of a mutation on the interaction
1,M167I,with no effect

# Variants of: B4
# Details: with ubql1_human UBQLN1, Q9UMX0
# Sequence of ubql1_human UBQLN1, Q9UMX0 (Q9UMX0 whole entry): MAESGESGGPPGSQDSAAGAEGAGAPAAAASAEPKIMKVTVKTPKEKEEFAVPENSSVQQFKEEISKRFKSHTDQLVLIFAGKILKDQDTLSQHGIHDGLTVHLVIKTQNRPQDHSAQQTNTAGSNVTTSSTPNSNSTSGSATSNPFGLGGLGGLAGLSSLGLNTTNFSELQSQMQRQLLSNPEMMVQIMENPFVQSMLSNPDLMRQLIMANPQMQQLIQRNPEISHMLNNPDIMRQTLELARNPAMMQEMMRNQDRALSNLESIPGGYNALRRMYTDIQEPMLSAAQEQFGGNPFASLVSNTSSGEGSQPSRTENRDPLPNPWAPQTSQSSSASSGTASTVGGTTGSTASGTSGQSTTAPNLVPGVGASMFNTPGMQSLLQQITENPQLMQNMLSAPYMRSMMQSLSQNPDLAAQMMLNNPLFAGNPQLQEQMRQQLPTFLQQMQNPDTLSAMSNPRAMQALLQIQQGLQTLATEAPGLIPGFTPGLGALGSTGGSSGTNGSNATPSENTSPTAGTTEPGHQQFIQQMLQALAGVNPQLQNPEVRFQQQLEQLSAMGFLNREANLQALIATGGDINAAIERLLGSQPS
row,Variant,effect of a mutation on the interaction
1,E148G,with no effect

# Variants of: B4
# Details: with bag6_human BAG6, P46379
# Sequence of bag6_human BAG6, P46379 (P46379 whole entry): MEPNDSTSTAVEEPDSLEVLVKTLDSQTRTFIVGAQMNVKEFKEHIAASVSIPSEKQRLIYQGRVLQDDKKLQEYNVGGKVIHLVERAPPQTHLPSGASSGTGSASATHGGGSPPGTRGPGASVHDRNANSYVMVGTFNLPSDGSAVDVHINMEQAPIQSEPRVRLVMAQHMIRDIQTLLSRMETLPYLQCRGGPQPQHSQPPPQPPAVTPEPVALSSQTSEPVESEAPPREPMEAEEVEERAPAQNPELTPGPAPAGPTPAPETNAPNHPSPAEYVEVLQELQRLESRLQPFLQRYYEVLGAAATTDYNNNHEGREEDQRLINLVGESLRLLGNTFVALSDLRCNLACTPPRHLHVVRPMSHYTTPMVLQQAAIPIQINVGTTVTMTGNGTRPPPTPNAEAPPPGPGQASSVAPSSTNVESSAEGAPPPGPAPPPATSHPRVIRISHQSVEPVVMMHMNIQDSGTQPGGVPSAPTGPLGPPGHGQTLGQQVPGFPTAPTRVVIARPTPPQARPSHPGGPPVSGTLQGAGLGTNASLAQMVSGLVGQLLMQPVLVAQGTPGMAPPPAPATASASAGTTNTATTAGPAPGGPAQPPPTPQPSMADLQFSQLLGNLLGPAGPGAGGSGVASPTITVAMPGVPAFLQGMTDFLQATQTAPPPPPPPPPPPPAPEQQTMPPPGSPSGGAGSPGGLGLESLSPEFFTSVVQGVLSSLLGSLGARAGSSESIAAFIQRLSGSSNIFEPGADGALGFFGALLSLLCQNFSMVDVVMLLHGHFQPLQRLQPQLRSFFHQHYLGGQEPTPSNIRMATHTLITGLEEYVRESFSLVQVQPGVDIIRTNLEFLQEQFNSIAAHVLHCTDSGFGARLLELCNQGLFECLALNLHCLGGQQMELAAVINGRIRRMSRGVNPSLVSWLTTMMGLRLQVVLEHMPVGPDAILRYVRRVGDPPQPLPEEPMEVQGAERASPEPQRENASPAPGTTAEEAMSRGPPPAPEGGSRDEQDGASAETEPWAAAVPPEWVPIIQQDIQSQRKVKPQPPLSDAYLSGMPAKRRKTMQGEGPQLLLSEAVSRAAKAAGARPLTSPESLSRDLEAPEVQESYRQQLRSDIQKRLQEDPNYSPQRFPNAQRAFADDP
row,Variant,effect of a mutation on the interaction
1,E148G,with no effect

# Variants of: B5
# Details: with blcap_human BLCAP
row,Variant,effect of a mutation on the interaction
1,R74Q,with no effect
2,A115T,with no effect

# Variants of: B6
# Details: with fkbp6_human FKBP6, O75344
row,Variant,effect of a mutation on the interaction
1,E173K,with no effect

# Variants of: B7
# Details: with rab7l_human RAB29, O14966
row,Variant,effect of a mutation on the interaction
1,S177L,with no effect

# Variants of: B8
# Details: with bcar3_human BCAR3, O75815
row,Variant,effect of a mutation on the interaction
1,P404S,with no effect

# Variants of: B9
# Details: with meox2_human MEOX2, P50222
# Sequence of meox2_human MEOX2, P50222 (P50222 whole entry): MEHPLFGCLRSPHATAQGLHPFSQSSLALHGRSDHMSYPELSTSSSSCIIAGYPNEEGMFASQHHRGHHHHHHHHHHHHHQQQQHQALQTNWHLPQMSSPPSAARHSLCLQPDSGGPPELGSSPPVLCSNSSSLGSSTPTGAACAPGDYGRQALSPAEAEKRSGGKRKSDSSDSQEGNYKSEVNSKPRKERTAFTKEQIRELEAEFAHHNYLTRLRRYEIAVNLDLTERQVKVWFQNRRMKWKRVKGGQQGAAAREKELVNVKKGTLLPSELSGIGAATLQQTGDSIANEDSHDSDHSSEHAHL
row,Variant,effect of a mutation on the interaction
1,A16T,with no effect
